This note sets out measurements from US10870691B2, “Antibodies and fragments thereof that bind hepatitis B virus protein X” (priority 2018, dated 2020).

Like-named read-outs stand apart in the source and are kept apart here. Ends that are not written are not given here.

Assay [1] concerns HBx. Conditions: HBV-infected PHH, confocal microscopy (FIGS. 8B, 9B, 10B).
A further assay has as its system HBV. The experiment in a line: Extracellular HBV DNA quantification (qPCR) in HBV-infected PHH. It counts as cell-based, HBV genotype D in primary human hepatocytes. Conditions: siRNA 25 nM transfected or ETV treatment from day 6 post-infection (FIGS. 8A, 9A, 10A). The method, then: PHH were infected with HBV or HBVΔX (1000 genomic equivalents/cell) or transduced with lentiviruses as described previously (Niu, et al., PLoS One (2017) 12:e0169648).
(§1) siRNA transfections were performed using Lipofectamine RNAiMax.
Extracellular HBeAg and HBV DNA were measured as previously described (Niu, et al., PLoS One (2017) 12:e0169648, 29). HBeAg levels were measured by enzyme-linked immunosorbent assay or electrochemiluminescence assay (Meso Scale Discovery, Rockville, Md.). Extracellular HBV DNA was purified from cell-culture medium using a DNeasy 96 Blood & Tissue Kit (Qiagen) and quantified by qPCR on a QuantStudio 7 Flex Real-Time PCR System (ThermoFisher Scientific) using primers and a probe designed to the HBx region of the HBV genome; forward primer: 5′-CCGTCTGTGCCTTCTCATCTG-3′; reverse primer: 5′-AGT CCA AGA GTY CTC TTA TGY AAG ACC TT-3′; probe: 5′/56-FAM/CCG TGT GCA/ZEN/CTT CGC TTC ACC TCT GC/3IABkFQ/3′. HBV DNA levels were normalized to β-actin.

The next assay deals with Smc6. The experiment in a line: Confocal microscopy of Smc6 in HBV-infected PHH after treatment. To be noted: confocal microscopy (FIGS. 8B, 10B). It counts as cell-based, human. The method, then: as §1
A short description of assay [2]: Mouse immunization with peptide-BSA conjugate. Type of assay: in vivo. Conditions: 10 μg peptide-BSA conjugate plus 1 μg adjuvant, biweekly injections, CD-1 mice.
Protocol: (§3) Two of these HBx peptides were individually conjugated to BSA and three NZB/W, three CD-1, and three BALB/c mice were immunized with 10 μg peptide-BSA conjugate plus 1 μg adjuvant (ALD and MDP in a 1:1 ratio). Biweekly injections were performed using a “rapid” immunization protocol developed by Antibody Solutions. […] The top 50 candidates were further evaluated by confocal imaging of HBV-infected PHH.
The target in assay [3] is HBx (Hepatitis B virus genotype D subtype ayw, UniProt P03165). To be noted: top 50 candidates, HBV-infected PHH.
Sequence of HBx (Hepatitis B virus genotype D subtype ayw, UniProt P03165) (P03165 whole entry, the tested form may be a part): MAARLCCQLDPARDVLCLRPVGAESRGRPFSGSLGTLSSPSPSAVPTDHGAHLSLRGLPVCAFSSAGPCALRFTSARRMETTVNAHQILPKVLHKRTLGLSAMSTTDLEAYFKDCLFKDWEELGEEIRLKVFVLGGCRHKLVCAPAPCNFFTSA
Protocol: as §3
Assay [4] has as its system recombinant HBx-DDB1 fusion protein. The experiment in a line: HBx ELISA, binding to recombinant HBx-DDB1 fusion protein. Also on record: species or system HBV. To be noted: 100 ng/mL antibody, varying concentrations of fusion protein. The protocol:
Mouse monoclonal anti-HBx antibodies were developed by Antibody Solutions (Sunnyvale, Calif.). Antibody candidates were screened by enzyme-linked immunosorbent assay (ELISA) using recombinant HBx-DDB1 fusion protein and then by confocal microscopy on HBV infected PHH.
Antibody candidates were screened by ELISA. […] Signal strength was measured as absorbance at 450 nm.
Background: In an ELISA, binding on a coated surface is turned into a signal by an enzyme label.

A further assay has as its target HBx27-50 peptide (Hepatitis B virus genotype D subtype ayw, UniProt P03165). To be noted: 100 ng/mL antibody, varying concentrations of HBx peptide. The method, then:
(§2) Antibody candidates were screened by ELISA. Briefly, sulfhydryl plates were coated with 36 ng/mL recombinant HBx-DDB1 fusion protein, blocked and then incubated with 50 μL of undiluted hybridoma supernatant. Signal was detected colorimetrically with a goat anti-mouse-HRP antibody (Jackson Immuno Research, West Grove, Pa.) and incubation with TMB substrate solution (MossBio, Pasadena, Mass.). Signal strength was measured as absorbance at 450 nm. ELISA profiling of mAbs was performed using 100 ng/mL antibody with varying concentrations of recombinant HBx-DDB1 fusion protein or HBx peptide.

The next assay concerns the target HBx69-87 peptide (Hepatitis B virus genotype D subtype ayw, UniProt P03165). To be noted: 100 ng/mL antibody, varying concentrations of HBx peptide. The protocol: as §2
In assay [5] the test system is HBx. To be noted: for detection of HBx by Western blot in PHH transduced with Myc-HBx lentivirus: Myc-tagged HBx genotype D, lysates day 3 post-transduction; for HBx genotype recognized by Western blot: PHH transduced with lentiviruses expressing HBx genotype A-E; for detection of HBx by Western blot in HBV-infected PHH: lysates day 4 post-infection. The protocol: For Western blotting experiments, PHH were transduced with Myc-HBx-expressing lentivirus or were infected with wild-type HBV, HBx-negative HBV (HBVΔX), or were mock-infected.
Western blotting was performed as previously described (Decorsière, et al., Nature (2016) 531:386-389). Briefly, PHH were transduced with a lentivirus expressing 3xMyc-HBx (HBV genotype A, B, C, D or E) or infected with wild-type HBV, HBVΔX, or mock-infected. On the indicated day post-transduction or post-infection, lysates were collected by adding 0.25 mL 1× cell lysis buffer (Cell Signaling) combined with protease inhibitor cocktail (ThermoFisher Scientific) and scraping to remove the cells from the plates. Membranes were probed with 1:250 diluted mouse monoclonal anti-Smc6 (Abgent), 1:1000 diluted mouse monoclonal c-Myc (LifeSpan Biosciences), 1:250 diluted mouse monoclonal anti-HBx mAb (15 μg/mL final concentration), and 1:2000 diluted rabbit monoclonal anti-GAPDH (Cell Signaling). IRDye 680RD goat anti-rabbit or IRDye 800CW goat anti-mouse IgG (LI-COR, Lincoln, Nebr.) at a 1:5000 dilution were used as secondary antibodies. Blots were visualized using an Odyssey Infrared Imaging System (LI-COR).
On the technique in general: Immunoblotting shows a protein as a band on a membrane.

`C=C1[C@H](CO)[C@@H](O)C[C@@H]1n1cnc2c(=O)[nH]c(N)nc21` [ETV, entecavir]: the “change in percentage of HBx-positive cells” value with HBx [1] is given as “Neither ETV nor siCtrl significantly reduced”. Besides, in the assay on HBV, the “extracellular HBV DNA levels” value is reported as “significantly reduced”. In addition, the “change in percentage of Smc6-positive cells” value in the assay on Smc6 was “Neither ETV nor siCtrl significantly reduced the percentage of HBx-positive cells or increased the percentage of Smc6-positive cells”.
In the case of “HBx27-50: HBx AD38 (genotype D) residue 27-50 peptide, conjugated to BSA for immunization (GRPFSGSLGTLSSPSPSAVPTDHG; also: conjugated to BSA)”, the “immunogenicity of peptide-BSA conjugate” value in assay [2] is listed as “immunogenic”.

B1: HBx M19: mouse monoclonal antibody against HBx; heavy chain SEQ ID NO: 27, light chain SEQ ID NO: 30 (Table 1) (antibody)
heavy: EVQLQQSGPELVKPGASVKISCQASGYTFTDYYMNWVKQSHGKRLEWIGDINPNNGGTAYNQKFKGKATLTVDRSSSTAYMEVRSLTSEDSAVYFCALLAYWGQGTLVTVSAAKTTPPSVYPLAPGSAAQTNSMVTLGCLVKGYFPEPVTVTWNSGSLSSGVHTFPAVLQSDLYTLSSSVTVPSSTWPSQTVTCNVAHPASSTKVDKKIVPRDCGCKPCICTVPEVSSVFIFPPKPKDVLTITLTPKVTCVVVDISKDDPEVQFSWFVDDVEVHTAQTKPREEQINSTFRSVSELPIMHQDWLNGKEFKCRVNSAAFPAPIEKTISKTKGRPKAPQVYTIPPPKEQMAKDKVSLTCMITNFFPEDITVEWQWNGQPAENYKNTQPIMDTDGSYFVYSKLNVQKSNWEAGNTFTCSVLHEGLHNHHTEKSLSHSPGK
light: DVVMTQTPLSLPVSLGDQASISCRSSQSLVYSDGNTHLHWYLQKTGQSPKLLIYKASNRFSGVPDRFSGSGSGTDFTLKISRVEAEDLGVYFCSQSTHVPLTFGAGTKLELKRADAAPTVSIFPPSSEQLTSGGASVVCFLNNFYPKDINVKWKIDGSERQNGVLNSWTDQDSKDSTYSMSSTLTLTKDEYERHNSYTCEATHKTSTSPIVKSFNRGEC
Regarding B1, in the assay with HBx [3], the “selectivity and sensitivity of hybridoma clones by confocal imaging” value was “most selective and sensitive”. For the same molecule, in [4], the “binding to recombinant HBx-DDB1 fusion protein by ELISA” value was “bound”. Moreover, in the assay with HBx27-50 peptide, the “binding to HBx27-50 peptide by ELISA” value is listed as “potently bound”. Also, the “binding to HBx69-87 control peptide by ELISA” value with HBx69-87 peptide is “did not bind”. For the same molecule, the results for the “detection of HBx by Western blot in PHH transduced with Myc-HBx lentivirus” value in the assay on HBx [5] (listed as HBx mAb) and with HBx [5] (listed as αHBx mAb) were “detected a 17 kDa protein” and “detected”, respectively. The “HBx genotype recognized by Western blot” value in the assay with HBx [5] (listed as HBx mAb) was “primarily recognizes genotype D HBx”; in the assay with HBx [5] (listed as anti-HBx mAb), “selective for genotype D HBx”. In the assay on HBx [5] (lentivirus-expressed HBx in PHH), the “sensitivity in Western blot analysis versus the other mAb” value is reported as “superior sensitivity”. For the same molecule, the results for the “detection of HBx by Western blot in HBV-infected PHH” value in the assay with HBx [5] (listed as HBx mAb), in the assay on HBx [5] (listed as anti-HBx mAb) and in the assay with HBx [5] (listed as αHBx mAb) were “detects a 17 kDa band”, “able to detect physiologically relevant levels of HBx protein” and “detected”, respectively.
